Drawing on patent US20180015177A1 (Genentech, published 2018), this text covers Kd and IC50 for 2 molecules.

Experiment [1] deals with T1, human Ly6E, N-terminal gD-tagged, stably expressed on PC3 cells (human, UniProt Q16553 21-101).
T1 construct: GPI-linked protein on cells; also called hu Ly6E; human Ly6E transfected PC3 cells; not shown: N-terminal gD tag of the retroviral vector
T1 sequence: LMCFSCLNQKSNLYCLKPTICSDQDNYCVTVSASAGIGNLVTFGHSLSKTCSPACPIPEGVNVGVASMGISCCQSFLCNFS
Briefly: Scatchard analysis on PC3 cells expressing human Ly6E. The protocol: (§1) A scatchard analysis was performed to determine affinity and binding sites per cell for the antibodies. Hu.9B12v12 antibody was iodinated several times using the Iodogen method. […] Competition reaction mixtures of 50 μL containing a fixed concentration of iodinated antibody and decreasing concentrations of unlabeled antibody were placed into 96-well plates. The PC3 cells stably transduced with retrovirus to express either recombinant human or Cynomolgus monkey gD tagged Ly6E were detached from flasks using Sigma Cell Dissociation Solution and were washed with binding buffer (DMEM with 2% FBS, 50 mM HEPES, pH 7.2, and 0.1% sodium azide). The washed cells were added at an approximate density of 200,000 cells in 0.2 mL of binding buffer to the 96-well plates containing the 50-μL competition reaction mixtures. […] The filters were counted on a Wallac Wizard 1470 gamma counter (PerkinElmer Life and Analytical Sciences; Wellesley, Mass.). The binding data were evaluated using New Ligand software (Genentech), which uses the fitting algorithm of Munson and Rodbard (1980) to determine the binding affinity of the antibody.

The target of experiment [2] is T2, Hu Ly6E (immobilized on CM5 chip for SPR) (human, UniProt Q16553 21-101).
T2 construct: also called human Ly6E
T2 sequence: T1 sequence
Briefly: SPR (Biacore T100), Hu Ly6E immobilized, IgG injected, single cycle kinetics, apparent KD. The protocol:
SPR Affinity Determination—Affinity determinations were performed by surface plasmon resonance using single cycle kinetics on a BIAcore™-T100. Hu Ly6E was immobilized via EDC/NHS chemistry according to supplier's instructions (˜20 response units (RU)) on a CM5 chip. For kinetic measurement, three-fold serial dilution of anti-Ly6E IgG (5 to 405 nM) in PBST were injected with 200 s for association & 300 s for dissociation at a flow rate of 30 ul/min at 25° C. Binding response was corrected by subtracting both the RU from a blank flow cell and from buffer run on the same flow cell. A 1:1 Languir model of simultaneous fitting of kₒₙ and koff was used to measure the apparent KD.

The target of experiment [3] is T3, Cynomolgus monkey Ly6E, N-terminal gD-tagged, stably expressed on PC3 cells (cynomolgus monkey, UniProt Q16553 21-101 (human entry)).
T3 construct: also called cyno Ly6E; not shown: N-terminal gD tag of the retroviral vector
T3 chain: T1 sequence with A33T, I57L, V61I
As to the kind of experiment: Scatchard analysis (125I antibody) on PC3 cells expressing gD-tagged cyno Ly6E. Here is the method: as §1

Experiment [4] concerns the target T1, human Ly6E, N-terminal gD-tagged, …. As to the kind of experiment: Scatchard analysis (125I antibody) on PC3 cells expressing gD-tagged human Ly6E. The protocol: as §1
The target is the same in experiment [5]. As to the kind of experiment: cell-based competitive binding on human Ly6E PC3 cells; competitor mouse 9B12. The protocol: (§2) Cell-based Ly6E competitive binding assay—Cultured human Ly6E transfected PC3 cells were harvested with 5 mM EDTA containing PBS. Cells were washed with PBS and added onto a 384-well high binding plate (Meso Scale Discovery Technology (MSD); Gaithersburg, Md.). The plate was kept at room temperature for 1 hr to allow cells to adhere to the plate as described (See Lu, Y., Wong, W. L. & Meng, Y. G. A high throughput electrochemiluminescent cell-binding assay for therapeutic anti-CD20 antibody selection. Journal of Immunological Methods 314, 74-79 (2006)). The plate with cells was blocked with fetal bovine serum containing PBS for 1 hr and then cooled on ice. Serially diluted antibody variant samples were mixed with equal volume of fixed concentration of mouse 9B12 Ab. The mixtures were added onto the plates and incubated at 4° C. with gentle shaking for 1 hr.
The plate was then washed with cold PBS and an anti-mouse IgG Fc specific Ab (Jackson ImmunoReserach; West Grove, Pa.) labeled with sulfo-ruthenium tag was added to the plate as the detection reagent. The plate was incubated at 4° C. with gentle shaking for 1 hr. After incubation the plate was washed again, and MSD read buffer (MSD; Gaithersburg, Md.) was added onto the wells. The plate was read with a MSD SectorÒ imager 6000. The data was graphed and analyzed using KaleidaGraph software (Synergy Software; Reading, Pa.) to determine IC₅₀ values.

Experiment [6] concerns the target T3, Cynomolgus monkey Ly6E, N-terminal …. Briefly: cell-based Ly6E competitive binding assay, cyno Ly6E; competitor mouse 9B12.
Experiment [7] addresses T1, human Ly6E, N-terminal gD-tagged, …. As to the kind of experiment: cell-based Ly6E competitive binding assay, human Ly6E; competitor mouse 9B12. Here is the method: as §2
The plate was then washed with cold PBS and an anti-mouse IgG Fc specific Ab (Jackson ImmunoReserach; West Grove, Pa.) labeled with sulfo-ruthenium tag was added to the plate as the detection reagent. […] After incubation the plate was washed again, and MSD read buffer (MSD; Gaithersburg, Md.) was added onto the wells. The plate was read with a MSD SectorÒ imager 6000. The data was graphed and analyzed using KaleidaGraph software (Synergy Software; Reading, Pa.) to determine IC₅₀ values.

In experiment [8] the target is T3, Cynomolgus monkey Ly6E, N-terminal …. As to the kind of experiment: Scatchard analysis on PC3 cells expressing cyno Ly6E. The protocol:
as §1

Residue numbers refer to the chain shown, from its start. Where “and” joins values, the source holds several entries; their conditions need not be identical. Equal entries are not always repeated.

B1: hu9B12.v12 (antibody, V domains shown)
VH: EVQLVESGPALVKPTQTLTLTCTVSGFSLTGYSVNWIRQPPGKALEWLGMIWGDGSTDYNSALKSRLTISKDTSKNQVVLTMTNMDPVDTATYYCARDYYFNYASWFAYWGQGTLVTVSS
VL: DIQMTQSPSSLSASVGDRVTITCSASQGISNYLNWYQQKPGKTVKLLIYYTSNLHSGVPSRFSGSGSGTDYTLTISSLQPEDFATYYCQQYSELPWTFGQGTKVEIK
notes: Expressed and tested as IgG; Iodinated (125I) tracer plus unlabeled antibody in the Scatchard analysis; also called humanized anti-Ly6E antibody
Regarding B1, the Kd is 4 nM in experiment [1]; 7 nM in experiment [2]; 7.9 nM in experiment [3]; 4 nM in experiment [4]; 16 to 40 nM in experiment [6]; 15 to 19 nM in experiment [7]. Besides, the Kd in experiment [8] amounted to 14 nM. For the same molecule, in experiment [5], the 50% inhibitory concentration (IC50) is 15 nM and 16 nM.

B2: chimeric 9B12 (antibody, V domains shown)
VH: QVQLKESGPGLVAPSQSLSLTCTVSGFSLTGYSVNWVRQPPGKGLEWLGMIWGDGSTDYNSALKSRLTISKDNSKSQVFLKMNSLQTDDTARYYCARDYYFNYASWFAYWGPGTLVTVSA
VL: DIQMTQTTSSLSASLGDRVTISCSASQGISNYLNWYQQKPDGTVKLLIYYTSNLHSGVPSRFSGSGSGTDYSLTISNLEPEDIATYYCQQYSELPWTFGGGTKVEIK
notes: Chimeric IgG with the mouse 9B12 variable domains; also called ch9B12; Ch 9B12
For B2, the Kd in experiment [1] is 4 nM; in experiment [2], 6 nM; in experiment [3], 2.9 nM; in experiment [4] it was 2 nM; in experiment [6], 5 to 7 nM; in experiment [7], 3 to 6 nM. Further, the Kd in experiment [8] was determined as 4 nM. Also, the IC50 in experiment [5] was 3 nM and 6 nM and 5 nM.
